Laboratory results reported in article PMC5088048 (Structure (London, England : 1993), 2016).

T1: RING1B, full-length (UniProt Q99496 1-336)
T1 sequence (looked up): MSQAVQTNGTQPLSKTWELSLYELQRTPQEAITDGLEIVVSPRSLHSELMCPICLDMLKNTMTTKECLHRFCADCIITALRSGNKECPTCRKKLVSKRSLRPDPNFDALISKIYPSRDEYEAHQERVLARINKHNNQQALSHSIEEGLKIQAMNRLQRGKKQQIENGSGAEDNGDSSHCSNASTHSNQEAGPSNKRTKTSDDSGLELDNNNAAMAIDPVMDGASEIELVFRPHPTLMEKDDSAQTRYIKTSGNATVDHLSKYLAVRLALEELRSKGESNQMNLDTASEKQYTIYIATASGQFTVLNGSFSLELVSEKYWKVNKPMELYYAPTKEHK

B1: BCORL1 PUFD (1594–1711) (domain or fragment)
chain: METRDDFMFELSDKPLLPCYNLQVSVSRGPCNWFLFSDVLKRLKLSSRIFQARFPHFEITTMPKAEFYRQVASSQLLTPAERPGGLDDRSPPGSSETVELVRYEPDLLRLLGSEVEFQSCNS
B2: PCGF1 150–255/BCORL1 PUFD dimer (complex)
chain 1: LPFSSFDHSKAHYYRYDEQLNLCLERLSSGKDKNKSVLQNKYVRCSVRAEVRHLRRVLCHRLMLNPQHVQLLFDNEVLPDHMTMKQIWLSRWFGKPSPLLLQYSVK
chain 2: B1 chain
B3: PCGF1 35–255 (RING finger and RAWUL domains) (domain or fragment, UniProt Q9BSM1 35-255, looked up)
chain: RVKIKDLNEHIVCCLCAGYFVDATTITECLHTFCKSCIVKYLQTSKYCPMCNIKIHETQPLLNLKLDRVMQDIVYKLVPGLQDSEEKRIREFYQSRGLDRVTQPTGEEPALSNLGLPFSSFDHSKAHYYRYDEQLNLCLERLSSGKDKNKSVLQNKYVRCSVRAEVRHLRRVLCHRLMLNPQHVQLLFDNEVLPDHMTMKQIWLSRWFGKPSPLLLQYSVK

How the values were obtained:
RING1B, full-length = molecular target: T1, RING1B, full-length; test: AUC
[1] = molecular target: B3; test: AUC
[2] = molecular target: KDM2B 1059–1336/SKP1 heterodimer (UniProt Q8NHM5 1059-1336; P63208 2-163); test: ITC
KDM2B 1059–1336/SKP1 heterodimer, sequence (Q8NHM5 1059-1336, chain 1 of 2): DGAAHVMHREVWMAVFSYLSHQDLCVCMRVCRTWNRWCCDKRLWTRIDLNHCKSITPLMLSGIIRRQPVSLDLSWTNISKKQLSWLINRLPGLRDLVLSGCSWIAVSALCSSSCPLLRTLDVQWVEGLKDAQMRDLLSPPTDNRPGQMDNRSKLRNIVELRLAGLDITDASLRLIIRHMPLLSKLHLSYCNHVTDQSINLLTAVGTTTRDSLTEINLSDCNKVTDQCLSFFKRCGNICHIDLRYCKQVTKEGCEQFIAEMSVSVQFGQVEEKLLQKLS
KDM2B 1059–1336/SKP1 heterodimer, sequence (P63208 2-163, chain 2 of 2): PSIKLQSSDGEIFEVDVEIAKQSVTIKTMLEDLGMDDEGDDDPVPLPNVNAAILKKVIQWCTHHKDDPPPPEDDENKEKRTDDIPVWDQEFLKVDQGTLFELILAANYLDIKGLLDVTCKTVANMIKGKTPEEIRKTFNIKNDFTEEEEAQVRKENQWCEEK

Binder: B1
- stoichiometry N (RING1B, full-length): 1
- stoichiometry N [1]: 1

Binder: B2
- Kd [2]: 2800 nM

Binder: B3
- stoichiometry N (RING1B, full-length): 1
